# B1: human DUSP13 protein (protein)
# chain: MDSLQKQDLRRPKIHGAVQASPYQPPTLASLQRLLWVRQAATLNHIDEVWPSLFLGDAYAARDKSKLIQLGITHVVNAAAGKFQVDTGAKFYRGMSLEYYGIEADDNPFFDLSVYFLPVARYIRAALSVPQGRVLVHCAMGVSRSATLVLAFLMICENMTLVEAIQTVQAHRNICPNSGFLRQLQVLDNRLGRETGRF
# How the values were obtained:
# [1] = target: Akt1
# [2] = target: Akt2
# Chain of Akt1 (P31749 whole entry): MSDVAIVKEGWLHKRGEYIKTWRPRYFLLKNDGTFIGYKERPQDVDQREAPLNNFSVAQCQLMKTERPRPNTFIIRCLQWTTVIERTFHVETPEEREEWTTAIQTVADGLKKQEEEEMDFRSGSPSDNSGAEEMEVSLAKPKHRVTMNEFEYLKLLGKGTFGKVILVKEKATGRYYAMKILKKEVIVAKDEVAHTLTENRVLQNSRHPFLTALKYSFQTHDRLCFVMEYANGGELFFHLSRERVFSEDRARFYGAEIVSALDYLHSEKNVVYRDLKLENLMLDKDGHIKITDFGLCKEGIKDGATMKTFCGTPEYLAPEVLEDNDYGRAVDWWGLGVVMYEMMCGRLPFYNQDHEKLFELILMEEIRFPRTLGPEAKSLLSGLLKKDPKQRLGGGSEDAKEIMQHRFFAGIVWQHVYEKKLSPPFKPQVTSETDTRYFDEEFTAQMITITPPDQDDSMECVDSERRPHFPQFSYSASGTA
protein,measurement,setting,value
B1,"dephosphorylation of phosphorylated Ser-473 (FIG. 15, right, second panel from the top)",[1],directly dephosphorylates the phosphorylated Ser-473 thereof
same,"dephosphorylation of phosphorylated Ser-473 (FIG. 15, right, second panel from the top)",[2],directly dephosphorylates the phosphorylated Ser-473 thereof
